From the nanobody polyreactivity screen of Harvey et al. (2022)

assay: yeast display, Sf9 membrane polyspecificity reagent, FACS + sequencing; frameworks hold sequencing errors
Summary of the method: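 A synthetic nanobody library was expressed on Saccharomyces cerevisiae BJ5465 by galactose induction for 36–48 hours. The library was stained for 1 hour at 4 °C with 10% biotinylated, detergent-solubilized Sf9 membrane reagent and enriched with streptavidin microbeads before FACS. Low and high (top ~1%) gates were set on anti-HA fluorescence for expression and streptavidin fluorescence for reagent binding, and each polyreactivity label reflects the gate of origin.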

Sequence	polyreactivity (PSR sort gate)
QVQLVESGGCLVQAGGSLRLSCAASGSTLIEYAMGWYRQAPGKESELVARISKSGDSTYYADSVKGRFTISRDNAKNTVYLQMISLKPEDTAVYYCAKYHRDGFYRSYLRTFDFGYWGQGTQVTVSS	low polyreactivity
QVQLVESGGCLVQAGGSLRLSCAASGSTLRSHAMGWYRQAPGKERELVASISAGGSTSYADSVKGRFTISRDNAKNTVYRQMNSLKPEDTAVYYCAADNSVGSYDYWGQGTEVTVSS	low polyreactivity
QVQLVESGGCLVQAGGSLRLSCAASGSTLRYYAMGWYRQAPGKERELDARIRSNGGSTYYADSVKGRFTISRDNANNTVYLQMNSLKPEETAVYYCAARTYRGQYYTGFGFGYWGQGSQVTVSS	high polyreactivity
QVQLVESGGCLVQAGGSLRLSCAASGSTYPVNAMVWSRKEPGKERELDATISWNDDSTDYADSVKGRFTISRDNAKNNVYLQLKSLKPEDTAVYYCAADWHAWGLYTFNSWGQGTLVTVSS	low polyreactivity
QVQLVESGGCLVQAGGSLRLSCAASGYTFVHYDMGWYRQAPGKEREFVAAISGATYYADSVTGRFTISRDNAKNTVYLQMNSLKLEDTAVYYCNAYAYVESPSDMDYWGQGTQVTVSS	low polyreactivity
QVQLVESGGCLVQAGGSLRLSCAASGYTFYVYAMGWYRQAAGKVRELVSAISGGSNTYYADSVKGRFTISRDNAKNTVYLQMNSLKPEDTALYYCAKSSTTYRQRARYDYWGHGTQVTVSS	high polyreactivity
QVQLVESGGCLVQAGGSLRLSCAASGYTLATYAMGWYRQAPGKERELVAAITSTGGTTYYADSVKGRFTISRDNAKNTVYLPMNSLKPEDTAVYYCNAAAALYKRYDYWGQGTQVTVSS	high polyreactivity
QVQLVESGGCLVQAGGSLRLSCADSGSTFVIYYMGWYRQAPGKERELVAAISYSGGSTYYADSVKGRFTISRDNAKNTVYLQMNSLKPEDTAVYYGYDYWGQGTQVTVSS	low polyreactivity
QVQLVESGGCLVQAGGSLRLSCAPSGYTFGRNAMGWYRQAPGKEWELVATISQRGGSTYYADSVKGRFTISRDNAKNTVYLQLNSLKPEDTAVYYCSAGPIYRYRRYYYWGQGTQVTVSS	high polyreactivity
QVQLVESGGCLVQAGGSLRLSCASSGITFPGYAMGWYRQAPGKERELVAVIRKSGTSTYYADSVKGRFTISRDNAKNTVDLQMNSLKPEDTAVYYCAAGGPSTLDDYWGQGTQGTVSS	low polyreactivity
QVQLVESGGCLVQAGGSLRLSCASSGSTFHSYAMGWYRQAPGKERELVAAISRSGGSTYYADSVKGRFTISRDNAKNTVYLQMNSLKPEDTAVYYCAARDLQFSGYYYWGQGTQVTVSS	high polyreactivity
QVQLVESGGCLVQAGGSLRLSSAASGFTFDKYAMGWYRQAPGKEMELVAAISGSGGTTYYADSVKGRFTISRDNAKNTVYLQMNSLKPEDTAVYYCATRLYSIYSYGYWGQGTQVTVSS	high polyreactivity
QVQLVESGGCLVQAGGSLRLSSAASGSTFQNYAMGWYRQATGKERELVAAISSGGRTYYADSVKGRFTISRDNAKNTVYLQMYSLKPEDTAVYYCAVRYRVYKFQYGYWGQGTQVTVSS	high polyreactivity
QVQLVESGGCLVQAGGSLRLSSAASGSTFYYYVMGLYRQAPGKERELVAAINSGGSTYYADSVQGRFTISRDNAKNTVYLQMNSLKPEDTAVYYCAKSCSYWYQYYYWGQGSQVTVSS	low polyreactivity
QVQLVESGGCLVQAGGSLRLTCAASGIIFYAYAMGWYRQAPGKEREFVAAINNSGGRTYYADSVKGRFTISRDNAKNTVYLQMHSLKPEDTAVYYCAVYSYYRRTYRREMDYWGQGTQVTVSS	high polyreactivity
QVQLVESGGCLVQAGRSLRLSCAASGRTFPTYAMGWYRQAPGKERELVAAIRISGGRTYYADSVKGRFTISRDISKNTVYLQMNSLKPEDTAVYYCATRDRAGYYYWGQGTQVTVSS	high polyreactivity
QVQLVESGGCLVQARGSLRLRCAASGGTFYAYAMGWYREAPGKERELVAAISRSGSTYYADSVKGRFTISRDNAKNTVYLQMNSLKPEDTAVYYCAARRARRDPVGYVYAKYVYWGQGTQVTVSS	high polyreactivity
QVQLVESGGCLVQGGGSLRLTWAASGRTFPYNNMRRYRQAPGKERELVASITYTDGSTSYADCVKGRFTISRDNAKNTVYLQMNSLKPQDTADYYCAAVYYAHQDYRFDYWGQGTQVTVSS	low polyreactivity
QVQLVESGGCSVQAGGSLRLICAASGYTFYINAMGWYRPAPGKERELVAVITWSSGSTYYADSVKGRFTISRDNAKNTVYLQMYSLKAEDTAVYYCAADVTYEDGAWTIQYDYWGQGTQVTVSS	high polyreactivity
QVQLVESGGCVVQAGGSLRLICAASGRTFGRNVMGWYRQAPGKEMELVAAISRSGGSTYYADSVKGRFTISRDNAKNTVYLQMNSLKPEDTAVYYCAAYSVGDYYWGQGTQVTVSS	high polyreactivity
QVQLVESGGDLVQAGGSLRLSCAASGSIFYINAMGWYRQAPGKERELVASISYSGTSTYYADSVKGRFTISRDNAKNTVYLQMNSLKPEDTAVYYCNAEDTPGAGDGYWGQGTQVTVSS	low polyreactivity

Sequence	polyreactivity (PSR sort gate)
QVQLVESGGFLDQAGGSLRLSCAASGFTFYYYAMGWYRQAHAKERELVAAITARGVSTYYADSVKGRFTISRDNAKNTVYLQMNRLNPEDTAVYYCAKRRYYYAPAIPGYYYWGQGTKVTVSS	high polyreactivity
QVQLVESGGFLVQAGGSLRLTCAASGSIIENNAMGWSRQAPRKERELVDAISSDDTTNYADSVKGRFTISRDNAKNTVYLLMNRLLPVDTAVYYCNVDSGPEDKTVTYDYWGQGTQVTVSS	low polyreactivity
QVQLVESGGGFVQAGASLRLSCAASGRTCHGYAMGWYRQAPGKERDLVAAINASGGRTYYAESVKGRFTISRDNAKNTVYLLMNSLNPEDTAVYYCGVYSASFRYGLANDYWGQGTQVTVSS	high polyreactivity
QVQLVESGGGFVQAGCSLRLSCAASGSIFLYNAMGWYRQAPGNDRELVATISYIGGRTYYADSVKGRFSISRDKAKNTVYSQMNSLKPEDTAVYYCAAEYYVISSPSFYEYDYWGQGTQVTVSS	low polyreactivity
QVQLVESGGGFVQAGGSLRLSCAACGRIFATYAMRWYRQAPGKERELVASFSYSDGSTYADSVKGRFTISRDNAKNTVYLQMNSLKPEDTAVYYCAAERLTHWGAFAAYDYWGQGTQVTVSS	low polyreactivity
QVQLVESGGGFVQAGGSLRLSCAASGFTFQYYGMGWYRQAPGKERELVAAINWSGGRTYYADSVKGRFTISRDNAKNTVYLQMNSLKPEDTAVYYCAATRSFSGGYGYVSYDYWGQGTQVTVSS	high polyreactivity
QVQLVESGGGFVQAGGSLRLSCAASGIIFDYDAMGWYRQAPGKERELVAAISKRGGSTYYADSVKGRFTISRDHAKNTVYFQMNSLKPEDTAVYYCAAVYAREAKRYDYWGPGTQVTVSS	high polyreactivity
QVQLVESGGGFVQAGGSLRLSCAASGIIFEYYTMGWYRQAPGKERELVASINYDGDSTYYADSVKGRFTISRDNAKNTVYLQMNSLKPEDTAVYYCSAEFYYVYSSFGHYYWGQGTQVTVSS	low polyreactivity
QVQLVESGGGFVQAGGSLRLSCAASGIIFTLYTMGWYIQAPGKERELVASISTRGGSTYYADSVKGRFTISRDYAKNTVYLQMNSLKPEDTAVYYCAAQGGYPVWRYYYWGQGTQVTVSS	high polyreactivity
QVQLVESGGGFVQAGGSLRLSCAASGLTLFRYAMGWYSQAPGKEREFVAAISPSGDRTYYADSVKGRFTISRDNAKNTVDLQMNSLKPEDTAVYYCNAWRYDYWGQGTQVTVSS	high polyreactivity
QVQLVESGGGFVQAGGSLRLSCAASGRIFHHNAMGGYRQAPGKVRELDATITKSGGSTYADSVKGRFTISRANAKNTVYLQMNSRKPEETAVYSCAATSVGAYGVRKYWYDYWAQGTQVTVSS	low polyreactivity
QVQLVESGGGFVQAGGSLRLSCAASGRIFRIYAMGWYRQAPGKERELVAAITYRGGSTNYADSVKGRFTISRDNAKNTVYVQINSLKPEDTAVYDCAARSVYYGYTGYSYWGPGTQVTVSS	high polyreactivity
QVQLVESGGGFVQAGGSLRLSCAASGRIFRLYAMGWYRQAPGKEREFVAAITFSGGRTYYADSVKGRFTISRDNAKNNVYLQMNSLKPEDTAVYYCAARGQTGYYSGVGYWGQGTQVTVSS	high polyreactivity
QVQLVESGGGFVQAGGSLRLSCAASGSIFYYNAMGWYRQAPGKERELVAAIDWSGGITYYADSVKGRFTISRDNAKNTVYLQMNSLKPEDTAVYYCNVPMPPAKAEYGYWGQGTQVTVSS	high polyreactivity
QVQLVESGGGFVQAGGSLRLSCAASGSTFHDYVMGWYRQAPGKERELVATIRRGASTYYADSVKGRFTISRDNEKNTVYLQMNSLIPEDTAVYYCAVPATGGYFSSEYDYWGQGTQVTVSS	low polyreactivity
QVQLVESGGGFVQAGGSLRLSCAASVIFGYYAMGWYSQAPGKERELVAAINWRGDSTYYADSVKGRFTISRDNAKNTVYLQMNSLKPEDTAVYYCAAQRRDIALLYDYWGQGTQVTLSS	low polyreactivity
QVQLVESGGGFVQAGGSLRLSCAASVSILWWYAMGWSRKATVKERELVAAITWSGTSTYYADSVKGRFTISRVNGKNTLYLQMISLKPEETAVYYCAVRSYVNGGWYDYWGQGTQGTVSS	high polyreactivity
QVQLVESGGGFVQAGGSLRLTCAASGYIFANYGMGWYRQAPGKQMELVAAISGSGGSTYYADSVKGRFTISRDNAKNTVYLQMNSLKPQDTAVYYCAALSNWWSYFTCYDGSDGFDYWVQGTQVTVSS	low polyreactivity
QVQLVESGGGFVQAGGSLRVSCAASGSIFRPDAMGWYRPAPGKERELVAAITWSGGRTYYADSVKGRFTISRDNAKNTVDLQMNSLKPEDTAVYYCAARPRYYYWFKSGTRVEYDYWGQGTQVTVSS	high polyreactivity
QVQLVESGGGFVQAGGTLRLSCAASGFTFGYNAMGWYRHAPGKERELVAAISFSDGITYYADSVKRRFTISRDNAKNNVYLQMNSLKPEDTAVYYCAADLYFEYEYWGQGTQVTVSS	high polyreactivity
